Test [1] deals with KLB/FGFR4 on KLB/FGFR4 expressing cells (UniProt Q86Z14). Description: cell-based or functional assay.
The target of test [2] is KLB (β-klotho) on KLB only expressing cells (UniProt Q86Z14). Description: cell-based or functional assay.

Some results are limits rather than exact numbers.

KLB (β-klotho) on KLB only expressing cells, sequence (Q86Z14 whole entry): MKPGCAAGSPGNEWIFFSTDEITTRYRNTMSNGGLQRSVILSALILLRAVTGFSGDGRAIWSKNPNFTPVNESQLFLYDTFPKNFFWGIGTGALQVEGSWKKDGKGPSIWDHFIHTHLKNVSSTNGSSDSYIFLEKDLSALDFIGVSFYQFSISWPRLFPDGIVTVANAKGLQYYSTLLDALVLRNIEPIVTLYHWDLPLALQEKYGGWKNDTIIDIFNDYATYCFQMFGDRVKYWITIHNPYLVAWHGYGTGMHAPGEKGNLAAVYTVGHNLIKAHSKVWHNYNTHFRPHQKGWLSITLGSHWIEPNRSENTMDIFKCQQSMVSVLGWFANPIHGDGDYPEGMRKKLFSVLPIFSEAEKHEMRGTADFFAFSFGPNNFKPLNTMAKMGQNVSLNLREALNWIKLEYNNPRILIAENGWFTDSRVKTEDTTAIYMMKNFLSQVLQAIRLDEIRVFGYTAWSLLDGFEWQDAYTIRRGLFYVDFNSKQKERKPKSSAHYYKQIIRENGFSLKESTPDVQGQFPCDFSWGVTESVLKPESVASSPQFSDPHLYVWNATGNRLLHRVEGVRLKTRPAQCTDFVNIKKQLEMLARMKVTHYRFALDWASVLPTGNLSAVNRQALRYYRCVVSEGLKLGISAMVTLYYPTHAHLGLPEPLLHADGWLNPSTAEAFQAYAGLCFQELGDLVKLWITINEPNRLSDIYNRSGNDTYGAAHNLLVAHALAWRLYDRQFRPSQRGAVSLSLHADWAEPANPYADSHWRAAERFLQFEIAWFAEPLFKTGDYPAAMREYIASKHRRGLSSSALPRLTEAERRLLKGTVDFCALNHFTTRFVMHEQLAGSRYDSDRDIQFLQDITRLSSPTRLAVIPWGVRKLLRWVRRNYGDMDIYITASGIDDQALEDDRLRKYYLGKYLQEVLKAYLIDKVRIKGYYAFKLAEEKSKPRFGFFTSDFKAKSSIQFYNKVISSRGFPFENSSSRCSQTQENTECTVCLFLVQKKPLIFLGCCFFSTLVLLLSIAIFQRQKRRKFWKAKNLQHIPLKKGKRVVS
KLB/FGFR4 on KLB/FGFR4 expressing cells, sequence (Q86Z14 whole entry, chain 1 of 2): as the sequence (Q86Z14 whole entry) above
KLB/FGFR4 on KLB/FGFR4 expressing cells, sequence (P22455 22-802 limits assumed, chain 2 of 2, further chain): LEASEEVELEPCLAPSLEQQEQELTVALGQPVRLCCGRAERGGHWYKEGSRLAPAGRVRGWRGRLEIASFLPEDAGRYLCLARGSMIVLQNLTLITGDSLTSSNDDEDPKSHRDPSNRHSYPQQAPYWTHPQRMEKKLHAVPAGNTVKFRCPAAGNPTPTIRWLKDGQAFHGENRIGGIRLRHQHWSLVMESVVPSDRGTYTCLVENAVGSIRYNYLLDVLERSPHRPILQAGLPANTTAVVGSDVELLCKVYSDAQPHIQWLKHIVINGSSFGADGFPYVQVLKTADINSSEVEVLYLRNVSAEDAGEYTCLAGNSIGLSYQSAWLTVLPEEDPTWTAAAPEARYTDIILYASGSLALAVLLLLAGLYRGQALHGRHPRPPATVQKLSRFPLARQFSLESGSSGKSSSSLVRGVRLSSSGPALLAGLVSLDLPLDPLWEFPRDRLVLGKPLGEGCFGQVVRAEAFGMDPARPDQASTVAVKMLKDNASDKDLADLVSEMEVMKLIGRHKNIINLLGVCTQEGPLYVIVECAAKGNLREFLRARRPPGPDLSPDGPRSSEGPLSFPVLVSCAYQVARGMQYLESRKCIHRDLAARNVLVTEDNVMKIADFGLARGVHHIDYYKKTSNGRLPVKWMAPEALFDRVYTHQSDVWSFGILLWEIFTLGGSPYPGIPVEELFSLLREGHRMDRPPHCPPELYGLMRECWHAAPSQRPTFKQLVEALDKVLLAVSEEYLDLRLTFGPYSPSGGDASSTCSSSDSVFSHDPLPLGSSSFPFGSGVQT

In the case of “Mutant FGF21-GalNAc-SA-PEG-20 kDa (BIO89-100) (from UniProt Q9NSA1 29-209) (ligand)”, the pERK functional assay, fold increase in pERK at 3000 nM in test [1] was < 2 fold.

On to “FGF-19 (from UniProt O95750 25-216) (ligand)”, for which, in test [2], the pERK functional assay, fold increase of pERK at 3000 nM was 2 fold.

In the case of “FGF-21 (native / wild type human Fibroblast Growth Factor-21) (from UniProt Q9NSA1 29-209) (ligand)”, in test [2], the pERK functional assay, fold increase of pERK at 3000 nM worked out at 2 fold. The pERK functional assay, fold increase in pERK at 3000 nM in test [1] was < 2 fold.

(Values after patent publication US20260201005A1.)
